Experimental data published in patent US12286661B2, “Methods for making high intensity sweeteners” (Firmenich Incorporated, priority 2018, dated 2025).

B1: SEQ ID NO. 1024/1025: CYP450 enzyme (DNA/protein SEQ ID NO) producing 11-OH cucurbitadienol (protein, listed as Citrullus lanatus)
chain: MWTILLGLATLAIAYYIHWVNKWKDSKFNGVLPPGTMGLPLIGETIQLSRPSDSLDVHPFIQSKVKRYGPIFKTCLAGRPVVVSTDAEFNHYIMLQEGRAVEMWYLDTLSKFFGLDTEWLKALGLIHKYIRSITLNHFGAESLRERFLPRIEESARETLHYWSTQPSVEVKESAAAMVFRTSIVKMFSEDSSKLLTGGLTKKFTGLLGGFLTLPLNLPGTTYNKCIKDMKEIQKKLKDILEERLAKGTGNDEDFLGQAIKDKESQQFISEEFIIQLLFSISFASFESISTSLTLILKFLADHPQVVKELEAEHEAIQKARADPDGPITWEEYKSMTFTLNVISETLRLGSVTPALLRKTTKEIQIKGYTIPEGWTVMLVTASRHRDPEVYKDPDTFNPWRWKELDSITVQKNFMPFGGGLRHCAGAEYSKVYLCTFLHILFTKYRWTKLKGGKIARAHILRFEDGLHVKFTPKE
B2: SEQ ID NO. 1046/1047: CYP450 enzyme (DNA/protein SEQ ID NO) producing 11-OH cucurbitadienol (protein, listed as Siraitia grosvenorii)
chain: MELWLWLLGASVGAYVFVFGILRNLNQWRFVTRHRNRYNLPPGDMGWPLIGTLLPFLQAFRSGRPDSFIHYFASTYGKIGMYKTYLFGSPSVIVCLPEVCRHVLMNDEQFVFGYSKATRILTGSKALNTVPKAEHRRLRRLIASLISGNDALSVYIGHVEGIVINCLQEWGSMKKPVEFLSEMKTVAFKVLLHIFIGSTSAAFIDKMEKLYTDFHLGFMSTPIDLPGTTFSRALKARNELIRIFENVLKEKRANLKSKEGENRKKDMTDLLLEVRDEDGQGLDDGCIIDLLIGFFFAGHETSAHSIMRAIMFLSENPETLLKAKAEQEQIVKARPADDQHKGLTMKEIKQMEYLSKVIDETLRKTSLAFTLSRETKVDVNLNGYTIPKGWKILVWTRAVHMDPEIYESPQKFDPSRWDNSKRRAGSFIPFGAGMRLCPGIDLSKLEIAIFLHYFIYGGFRLERVNPNCPENYLPLARPTDNCLARVVRDS
B3: SEQ ID NO. 1048/1049: CYP450 enzyme (DNA/protein SEQ ID NO) producing 11-OH cucurbitadienol (protein, listed as Siraitia grosvenorii)
chain: MWLLLIGAIVVLSFTRWLYGWKNPKCNGKLPPGSMGFPLLGETLQFFSPNTSSDVPPFIRKRMDRYGPIFRTNLVGRPLIVSTDSDLNYFIFQQEGQLFQSWYPDTFTEIFGRQNVGSLHGFMYKYLKNMVLHLFGPESLRKMIPEVEAAATRRLRQWSSHNTVELKDETASMIFDLTAKKLISYDLESSSENLRDNFVAFIQGLISFPLNVPGTAYHKCLQGRKRAMRMLKNMLQERRANPRKQQIDFFDFVLEELEKDGTLLTEEIALDLMFVLLFASFETTSLALTAAIKFLLDNPHVLEELTAEHEGILKRRENADSGLTWGEYKSMTFTFQFINETVRLANIVPGIFRKALRDIQFKGYTIPAGWAVMVCPPAVHLNPEKYIDPLAFNPWRWEKSELNGASKHFMAFGGGMRFCVGTDFTKVQMAVFLHCLVTKYRFKAIKGGNIIRTPGLQFPNGFHIQITEK

tested on: cucurbitadienol; test: 11-OH cucurbitadienol production from cucurbitadienol by CYP450s expressed in S. cerevisiae, LCMS; format: cell-based; details: S. cerevisiae strain producing cucurbitadienol and expressing SgCPR; LCMS peak area of product vs. internal reference; hits over vector only control
Text: DNA was obtained through gene synthesis either through Genescript, IDT, or Genewiz. For some of the cucurbitadienol synthases, cDNA or genomic DNA was obtained through 10-60 day old seedlings followed by PCR amplification using specific and degenerate primers. DNA was cloned through standard molecular biology techniques or through yeast gap repair cloning (Joska et al., 2014) into one of the following overexpression vectors: pESC-Ura, pESC-His, or pESC-LEU. Gene expression was regulated by one of the following promoters; Gall, Gal10, Tef1, or GDS. Yeast transformation was performed using Zymo Yeast Transformation Kit II. Yeast strains were grown in standard media (YPD or SC) containing the appropriate selection with 2% glucose or 2% galactose for induction of heterologous genes. Yeast strains were grown in shake flask or 96 well plates at 30° ° C., 140-250 rpm. When indicated, lanosterol synthase inhibitor, Ro 48-8071 (Cayman Chemicals) was added (50 ug/ml). Yeast samples producing mogrol precursors, mogrol and mogrosides were processed through one of the following: • Cucurbitadienol and 11-OH Cucurbitadienol: Samples cell pellets were lysed (Yeast Buster) followed by ethyl acetate extraction, drying, and resuspension in methanol. • ·Mogrol and Mogrosides: Samples cell pellets were lysed in 50% ETOH, incubated at 80° C. for 30 min, filtered, dried and resuspended in MeOH for LCMS screening.
For analyzing 11-OH cucurbitadienol, the LCMS method included the use of C8 2.1×100 mm column, gradient 60 to 90% B for 6 minutes at flow rate of 0.55 ml/min. For the enzyme screening, the LCMS method used was a Waters Acquity UPLC Protein BEH C4, 2.1×100 mm, 1.7 μm column and a gradient of 40% to 80% over 5 minutes, 95% B from 5.1 to 5.6 minutes with a flow rate of 0.55 ml/min, and ESI source positive mode single ion monitoring of 425.4.
Additional CYP450s were expressed in S. cerevisiae strain producing cucurbitadienol and expressing SgCPR. DNA and protein sequences for the CYP450 enzymes are shown in SEQ IDs 871-890 and 1024-1049 (see Table 1).

| Molecule | Peak Area 11-OH CCB |
| --- | --- |
| B1 | 1.231 |
| B2 | 0.2276 |
| B3 | 0.2083 |
